The values below are quoted from earlier work in patent US20070225245A1, “Viral vector driven mutant bacterial cytosine deaminase gene and uses thereof” (priority 1998, published 2007).

The conditions of this data set: cited from earlier work.

B1: bCD: wild type bacterial cytosine deaminase (protein, UniProt P25524 2-427, looked up)
Cytosine deaminase: SNNALQTIINARLPGEEGLWQIHLQDGKISAIDAQSGVMPITENSLDAEQGLVIPPFVEPHIHLDTTQTAGQPNWNQSGTLFEGIERWAERKALLTHDDVKQRAWQTLKWQIANGIQHVRTHVDVSDATLTALKAMLEVKQEVAPWIDLQIVAFPQEGILSYPNGEALLEEALRLGADVVGAIPHFEFTREYGVESLHKTFALAQKYDRLIDVHCDEIDDEQSRFVETVAALAHHEGMGARVTASHTTAMHSYNGAYTSRLFRLLKMSGINFVANPLVNIHLQGRFDTYPKRRGITRVKEMLESGINVCFGHDDVFDPWYPLGTANMLQVLHMGLHVCQLMGYGQINDGLNLITHHSARTLNLQDYGIAAGNSANLIILPAENGFDALRRQVPVRYSVRGGKVIASTQPAQTTVYLEQPEAIDYKR
In the case of B1, for the setting “at 168 h”, the retained activity is 100%.

B2: yCD: yeast cytosine deaminase (protein, UniProt Q12178 1-158, looked up)
Cytosine deaminase: MVTGGMASKWDQKGMDIAYEEAALGYKEGGVPIGGCLINNKDGSVLGRGHNMRFQKGSATLHGEISTLENCGRLEGKVYKDTTLYTTLSPCDMCTGAIIMYGIPRCVVGENVNFKSKGEKYLQTRGHEVVVVDDERCKKIMKQFIDERPQDWFEDIGE
On to B2, for which the enzyme activity entry (by 96 h at 37° C.) was “loses all activity”.
